Values of other authors, collected in patent US6294648A, “Protein having proteinase inhibitor activity” (Bayer Corporation, priority 1999, dated 2001).
Where two headings read alike, the source gives them in different places.

Tests used:
[1] = target: T1, leukocyte elastase (Homo sapiens, UniProt P08246)
T1 sequence (P08246 30-267): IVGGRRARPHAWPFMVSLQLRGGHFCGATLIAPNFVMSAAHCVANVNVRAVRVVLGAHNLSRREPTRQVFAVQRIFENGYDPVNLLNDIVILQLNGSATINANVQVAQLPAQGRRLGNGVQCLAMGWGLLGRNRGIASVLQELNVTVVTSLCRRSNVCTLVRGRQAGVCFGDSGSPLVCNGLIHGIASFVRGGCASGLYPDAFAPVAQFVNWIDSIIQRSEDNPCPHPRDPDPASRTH

[2] = target: chymotrypsin
[3] = target: plasmin (Homo sapiens, UniProt P00747)
[4] = target: T2, trypsin (Bos taurus, UniProt P00760)
T2 construct: gene PRSS1
T2 sequence (P00760 24-246): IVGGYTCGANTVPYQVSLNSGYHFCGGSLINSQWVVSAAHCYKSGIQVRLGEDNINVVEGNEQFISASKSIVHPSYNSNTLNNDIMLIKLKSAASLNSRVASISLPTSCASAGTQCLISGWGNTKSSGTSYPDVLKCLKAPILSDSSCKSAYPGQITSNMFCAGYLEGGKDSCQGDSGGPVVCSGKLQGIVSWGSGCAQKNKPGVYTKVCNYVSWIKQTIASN

[5] = target: T3, proteinase 3 (Homo sapiens, UniProt P24158)
T3 sequence (P24158 28-256): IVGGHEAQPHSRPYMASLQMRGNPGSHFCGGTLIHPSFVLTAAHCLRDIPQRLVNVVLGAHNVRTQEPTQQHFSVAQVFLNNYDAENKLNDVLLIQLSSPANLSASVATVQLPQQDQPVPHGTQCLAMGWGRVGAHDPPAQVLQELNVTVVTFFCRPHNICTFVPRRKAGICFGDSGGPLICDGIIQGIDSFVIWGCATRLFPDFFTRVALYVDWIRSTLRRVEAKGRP

[6] = system: activated neutrophils
[7] = system: neutrophil-induced ECM solubilization
[8] = target: T4, cathepsin G (Homo sapiens, UniProt P08311)
T4 sequence (P08311 21-255): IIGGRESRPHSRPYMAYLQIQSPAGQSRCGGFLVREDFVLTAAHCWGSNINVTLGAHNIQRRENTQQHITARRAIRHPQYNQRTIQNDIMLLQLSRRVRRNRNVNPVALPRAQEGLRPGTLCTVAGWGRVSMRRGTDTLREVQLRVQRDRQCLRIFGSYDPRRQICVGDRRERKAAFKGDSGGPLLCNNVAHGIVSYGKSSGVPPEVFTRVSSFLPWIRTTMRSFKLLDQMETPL

[9] = system: leukocyte elastase-induced emphysema; details: hamsters

Sequence of plasmin (P00747 581-810 limits assumed, species assumed): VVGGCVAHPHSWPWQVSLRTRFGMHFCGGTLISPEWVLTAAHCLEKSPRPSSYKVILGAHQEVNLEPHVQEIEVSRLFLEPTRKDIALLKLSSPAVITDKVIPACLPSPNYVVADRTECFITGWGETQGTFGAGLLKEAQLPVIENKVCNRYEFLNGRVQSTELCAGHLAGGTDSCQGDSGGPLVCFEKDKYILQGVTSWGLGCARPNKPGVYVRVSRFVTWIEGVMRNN
Sequence of plasmin (P00747 97-580 partner limits assumed, species assumed): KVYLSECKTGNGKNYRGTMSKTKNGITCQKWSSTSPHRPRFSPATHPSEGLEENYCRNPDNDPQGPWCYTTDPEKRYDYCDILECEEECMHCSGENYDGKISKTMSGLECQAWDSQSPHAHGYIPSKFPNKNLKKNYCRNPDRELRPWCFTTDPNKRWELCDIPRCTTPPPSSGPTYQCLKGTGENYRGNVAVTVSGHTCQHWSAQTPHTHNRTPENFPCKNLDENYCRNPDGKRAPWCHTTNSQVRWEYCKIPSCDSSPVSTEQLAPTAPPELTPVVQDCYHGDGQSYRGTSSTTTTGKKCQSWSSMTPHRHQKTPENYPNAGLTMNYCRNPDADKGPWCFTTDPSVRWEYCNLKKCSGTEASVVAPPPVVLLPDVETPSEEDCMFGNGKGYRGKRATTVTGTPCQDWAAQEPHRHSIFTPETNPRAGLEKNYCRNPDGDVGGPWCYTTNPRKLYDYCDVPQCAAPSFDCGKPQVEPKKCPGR

B1: placental bikunin: Kunitz family inhibitor; potent inhibitor of plasmin (protein, UniProt O43291 28-252, looked up)
Kunitz-type protease …: ADRERSIHDFCLVSKVVGRCRASMPRWWYNVTDGSCQLFVYGGCDGNSNNYLTKEECLKKCATVTENATGDLATSRNAADSSVPSAPRRQDSEDHSSDMFNYEEYCTANAVTGPCRASFPRWYFDVERNSCNNFIYGGCRGNKNSYRSEEACMLRCFRQQENPPLPLGSKVVVLAGLFVMVLILFLGASMVYLIRVARRNQERALRTVWSSGDDKEQLVKNTYVL
In the case of B1, the “inhibition of leukocyte elastase, in words” value [1] is listed as “not leukocyte elastase”, the Ki ([2]; read-out: Ki, chymotrypsin) is listed as 0.48 nM and the “inhibition of plasmin, in words” value [3] is listed as “potent inhibitor”. For the same molecule, the Ki [4] was 0.01 nM.

B2: Monocyte/neutrophil elastase inhibitor: a serpin family inhibitor (protein, UniProt P30740 1-379, looked up)
Leukocyte elastase inhibitor: MEQLSSANTRFALDLFLALSENNPAGNIFISPFSISSAMAMVFLGTRGNTAAQLSKTFHFNTVEEVHSRFQSLNADINKRGASYILKLANRLYGEKTYNFLPEFLVSTQKTYGADLASVDFQHASEDARKTINQWVKGQTEGKIPELLASGMVDNMTKLVLVNAIYFKGNWKDKFMKEATTNAPFRLNKKDRKTVKMMYQKKKFAYGYIEDLKCRVLELPYQGEELSMVILLPDDIEDESTGLKKIEEQLTLEKLHEWTKPENLDFIEVNVSLPRFKLEESYTLNSDLARLGVQDLFNSSKADLSGMSGARDIFISKIVHKSFVEVNEEGTEAAAATAGIATFCMLMPEENFTADHPFLFFIRHNSSGSILFLGRFSSP
In the case of B2, the “inhibition of leukocyte elastase, in words” value [1] is listed as “inhibits” and the “inhibition of proteinase 3, in words” value [5] is listed as “inhibits”.

B3: STI: Kunitz family inhibitor of trypsin from soybean (protein, UniProt P01070 25-205, looked up)
Trypsin inhibitor A: DFVLDNEGNPLENGGTYYILSDITAFGGIRAAPTGNERCPLTVVQSRNELDKGIGTIISSPYRIRFIAEGHPLSLKFDSFAVIMLCVGIPTEWSVVEDLPEGPAVKIGENKDAMDGWFRLERVSDDEFNNYKLVFCPQQAEDDKCGDIGISIDHDDGTRRLVVSKNKPLVVQFQKLDKESL
For B3, the ET-1 degradation [6] is given as “abolishes ET-1 degradation almost completely”, the “inhibition of chymotrypsin, in words” value [2] is given as “significantly weaker inhibitor” and the Ki ([2]; read-out: Ki(1), chymotrypsin) is given as 1000 nM. The Ki ([2]; read-out: Ki(2), chymotrypsin) was 300 nM, the “inhibition of neutrophil-induced ECM solubilization” value [7] was “completely or nearly completely inhibit” and the “inhibition of trypsin, in words” value [4] was “potent”.

B4: Alpha-1-antichymotrypsin: serpin family proteinase inhibitor (protein, UniProt P01011 24-423, looked up)
Alpha-1-antichymotrypsin: HPNSPLDEENLTQENQDRGTHVDLGLASANVDFAFSLYKQLVLKAPDKNVIFSPLSISTALAFLSLGAHNTTLTEILKGLKFNLTETSEAEIHQSFQHLLRTLNQSSDELQLSMGNAMFVKEQLSLLDRFTEDAKRLYGSEAFATDFQDSAAAKKLINDYVKNGTRGKITDLIKDLDSQTMMVLVNYIFFKAKWEMPFDPQDTHQSRFYLSKKKWVMVPMMSLHHLTIPYFRDEELSCTVVELKYTGNASALFILPDQDKMEEVEAMLLPETLKRWRDSLEFREIGELYLPKFSISRDYNLNDILLQLGIEEAFTSKADLSGITGARNLAVSQVVHKAVLDVFEEGTEASAATAVKITLLSALVETRTIVRFNRPFLMIIVPTDTQNIFFMSKVTNPKQA
For B4, the “inhibition of cathepsin G, in words” value [8] is listed as “inhibits” and the “inhibition of proteinase 3, in words” value [5] is listed as “not proteinase 3”.

B5: Antileukoproteinase (SLPI): member of the mucous proteinase inhibitor family (protein, UniProt P03973 26-132, looked up)
Antileukoproteinase: SGKSFKAGVCPPKKSAQCLRYKKPECQSDWQCPGKKRCCPDTCGIKCLDPVDTPNPTRRKPGKCPVTYGQCLMLNPPNFCEMDGQCKRDLKCCMGMCGKSCVSPVKA
In the case of B5, the Ki ([1]; read-out: Ki, elastase) is given as 0.6 nM, the “inhibition of cathepsin G, in words” value [8] is given as “not” and the “inhibition of proteinase 3, in words” value [5] is given as “not proteinase 3”.

B6: Eglin C: member of the potato inhibitor 1 family from leech Hirudo medicinalis (protein, UniProt P01051 1-70, looked up)
Eglin C: TEFGSELKSFPEVVGKTVDQAREYFTLHYPQYDVYFLPEGSPVTLDLRYNRVRVFYNPGTNVVNHVPHVG
For B6, the Ki ([1]; read-out: Ki, leukocyte elastase) is given as 0.37 nM, the Ki [8] is given as ~0.1 nM and the “inhibition of proteinase 3, in words” value [5] is given as “only weakly inhibits”. For the same molecule, the “protection against leukocyte elastase-induced emphysema / pulmonary hemorrhage” value [9] was “completely protected”.
